Article PMC3694296, “11β-Hydroxysteroid dehydrogenase type 1 contributes to the balance between 7-keto- and 7-hydroxy-oxysterols in vivo” (Biochemical Pharmacology, 2013)

Columns and labels:
[1] = substrate: C[C@]12C[C@H](O)[C@H]3[C@@H](CCC4=CC(=O)CC[C@@]43C)[C@@H]1CC[C@@H]2C(=O)CO; test: oxidation kinetics (Km) with recombinant enzyme, HPLC; assay type: biochemical, Mus musculus; conditions: NADP+
[2] = substrate: C[C@]12CC(=O)[C@H]3[C@@H](CCC4=CC(=O)CC[C@@]43C)[C@@H]1CC[C@@H]2C(=O)CO; test: reduction kinetics (Km) with recombinant enzyme, HPLC; assay type: biochemical, Mus musculus; conditions: NADPH

B1: 11β-hydroxysteroid dehydrogenase type 1 (murine 11βHSD1, m11βHSD1) (Mus musculus) (protein)
chain: NEEFRPEMLQGKKVIVTGASKGIGREMAYHLSKMGAHVVLTARSEEGLQKVVSRCLELGAASAHYIAGTMEDMTFAEQFIVKAGKLMGGLDMLILNHITQTSLSLFHDDIHSVRRVMEVNFLSYVVMSTAALPMLKQSNGSIAVISSLAGKMTQPMIAPYSASKFALDGFFSTIRTELYITKVNVSITLCVLGLIDTETAMKEISGIINAQASPKEECALEIIKGTALRKSEVYYDKSPLTPILLGNPGRKIMEFFSLRYYNKDMFVSN
notes: truncated form of recombinant m11βHSD1 protein (N23Δ)
B1 showed a Km [1] of 1.78 ± 0.56 µM, a Vmax [1] of 4.82 ± 0.65 pmol/µg/min and a Vmax/Km [1] of 2.7 L/ug/min x 10^-6. For the same protein, the Km [2] was 0.20 ± 0.25 µM, the Vmax [2] was 8.56 ± 4.06 pmol/µg/min and the Vmax/Km [2] was 42.8 L/ug/min x 10^-6.
